Data as given in article PMC7881136, “Mechanism of karyopherin-β2 binding and nuclear import of ALS variants FUS(P525L) and FUS(R495X)” (Scientific Reports, 2021).
Values belong to the binder of their own block, whether it stands above or below them.

Columns and labels:
Details in all cases: both partners purified
[1] = molecular target: T1, FUS(P525L)^PY-NLS (475–526, P525L), MBP removed (UniProt P35637 475-526, P525L); assay: crystal structure; Kapβ2ΔLoop·FUS(P525L) PY-NLS complex, 2.7 Å, space group P2(1)2(1)2, molecular replacement; crystals from 1 M succinic acid pH 7.0, 1% PEG MME2000, 20 °C
T1 construct: FUS residues 475–526 with the ALS mutation P525L; residues 507–526 modeled in the crystal structure; also called FUS(475–526, P525L); FUS PY-NLS(P525L); source: E. coli, lysed together with bacteria expressing GST-Kapβ2ΔLoop; complex purified (GSH sepharose, amylose, TEV, gel filtration); not shown: MBP, N-terminal, cleaved
T1 sequence (looked up): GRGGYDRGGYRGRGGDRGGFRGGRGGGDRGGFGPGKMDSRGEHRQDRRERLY

[2] = molecular target: T2, Kapβ2 (untagged, GST removed) (human, UniProt Q92973-2 1-890); assay: ITC; quality control of the Kapβ2 preparations with MBP-hnRNP A1 PY-NLS; set-up not told
T2 construct: Karyopherin β2 (Kapβ2, Transportin-1, TNPO1), human; used for ITC and turbidity assays; also called Karyopherin-β2; Transportin-1; source: E. coli BL21 (DE3), purified (GSH column, Tev cleavage, anion exchange, SEC Superdex200)
T2 sequence (looked up): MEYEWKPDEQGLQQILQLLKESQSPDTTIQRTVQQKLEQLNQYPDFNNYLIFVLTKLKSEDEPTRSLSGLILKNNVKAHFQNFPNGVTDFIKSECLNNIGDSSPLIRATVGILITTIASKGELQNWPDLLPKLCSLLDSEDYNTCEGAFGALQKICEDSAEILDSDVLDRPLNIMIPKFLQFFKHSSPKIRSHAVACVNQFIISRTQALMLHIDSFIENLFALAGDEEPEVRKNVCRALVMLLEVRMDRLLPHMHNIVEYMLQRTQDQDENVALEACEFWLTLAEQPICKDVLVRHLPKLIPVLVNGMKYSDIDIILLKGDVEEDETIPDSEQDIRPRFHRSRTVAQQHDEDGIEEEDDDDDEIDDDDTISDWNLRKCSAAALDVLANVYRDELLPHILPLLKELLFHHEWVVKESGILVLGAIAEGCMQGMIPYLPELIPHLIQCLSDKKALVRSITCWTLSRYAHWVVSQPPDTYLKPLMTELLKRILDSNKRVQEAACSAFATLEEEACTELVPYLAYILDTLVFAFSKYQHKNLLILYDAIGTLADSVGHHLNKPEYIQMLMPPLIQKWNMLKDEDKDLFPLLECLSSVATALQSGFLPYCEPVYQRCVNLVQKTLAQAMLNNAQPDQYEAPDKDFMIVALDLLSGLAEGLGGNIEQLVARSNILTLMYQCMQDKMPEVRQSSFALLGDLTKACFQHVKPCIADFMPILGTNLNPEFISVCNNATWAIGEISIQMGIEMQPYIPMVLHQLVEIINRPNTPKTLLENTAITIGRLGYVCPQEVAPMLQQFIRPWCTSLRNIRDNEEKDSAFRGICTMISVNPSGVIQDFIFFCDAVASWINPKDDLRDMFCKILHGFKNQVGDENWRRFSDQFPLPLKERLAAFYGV

[3] = molecular target: T2, Kapβ2 (untagged, GST removed); assay: ITC; reversed set-up: 10 μM MBP-FUS protein in the cell, 100 μM or 200 μM Kapβ2 in the syringe; 20 mM Tris–HCl, 150 mM NaCl, 10% glycerol, 2 mM BME; 20 °C; single class of binding sites; 'apparent' KD for FUS(1–370)

binding result [1]: binds
B1: Kapβ2ΔLoop (residues 337–367 replaced with a GGSGGSG linker) (natural protein, human)
chain: MEYEWKPDEQGLQQILQLLKESQSPDTTIQRTVQQKLEQLNQYPDFNNYLIFVLTKLKSEDEPTRSLSGLILKNNVKAHFQNFPNGVTDFIKSECLNNIGDSSPLIRATVGILITTIASKGELQNWPDLLPKLCSLLDSEDYNTCEGAFGALQKICEDSAEILDSDVLDRPLNIMIPKFLQFFKHSSPKIRSHAVACVNQFIISRTQALMLHIDSFIENLFALAGDEEPEVRKNVCRALVMLLEVRMDRLLPHMHNIVEYMLQRTQDQDENVALEACEFWLTLAEQPICKDVLVRHLPKLIPVLVNGMKYSDIDIILLKGDVEEDETIPDSEQDIRGGSGGSGDTISDWNLRKCSAAALDVLANVYRDELLPHILPLLKELLFHHEWVVKESGILVLGAIAEGCMQGMIPYLPELIPHLIQCLSDKKALVRSITCWTLSRYAHWVVSQPPDTYLKPLMTELLKRILDSNKRVQEAACSAFATLEEEACTELVPYLAYILDTLVFAFSKYQHKNLLILYDAIGTLADSVGHHLNKPEYIQMLMPPLIQKWNMLKDEDKDLFPLLECLSSVATALQSGFLPYCEPVYQRCVNLVQKTLAQAMLNNAQPDQYEAPDKDFMIVALDLLSGLAEGLGGNIEQLVARSNILTLMYQCMQDKMPEVRQSSFALLGDLTKACFQHVKPCIADFMPILGTNLNPEFISVCNNATWAIGEISIQMGIEMQPYIPMVLHQLVEIINRPNTPKTLLENTAITIGRLGYVCPQEVAPMLQQFIRPWCTSLRNIRDNEEKDSAFRGICTMISVNPSGVIQDFIFFCDAVASWINPKDDLRDMFCKILHGFKNQVGDENWRRFSDQFPLPLKERLAAFYGV
notes: linker that replaces residues 337–367; crystallisation construct; also called GST-Kapβ2ΔLoop; source: E. coli, lysed together with bacteria expressing MBP-FUS(475–526, P525L); complex purified (GSH sepharose, amylose, TEV, gel filtration)

Kd [2]: ~50 nM
B2: MBP-hnRNP A1 PY-NLS (domain or fragment)
chain: GGSYNDFGNYNNQSSNFGPMKGGNFGGRSSGPYGGGGQYFAKPRNQGGY
modifications: Limits not printed: conventional hnRNP A1 PY-NLS (M9) construct 257-305 in the 320-aa A1-A isoform, shifted by +52 to the 372-aa canonical entry. MBP omitted.

Kd [3]: 330 nM
B3: MBP-FUS(R495X) (residues 1–494) (domain or fragment, UniProt P35637 1-494, looked up)
chain: MASNDYTQQATQSYGAYPTQPGQGYSQQSSQPYGQQSYSGYSQSTDTSGYGQSSYSSYGQSQNTGYGTQSTPQGYGSTGGYGSSQSSQSSYGQQSSYPGYGQQPAPSSTSGSYGSSSQSSSYGQPQSGSYSQQPSYGGQQQSYGQQQSYNPPQGYGQQNQYNSSSGGGGGGGGGGNYGQDQSSMSSGGGSGGGYGNQDQSGGGGSGGYGQQDRGGRGRGGSGGGGGGGGGGYNRSSGGYEPRGRGGGRGGRGGMGGSDRGGFNKFGGPRDQGSRHDSEQDNSDNNTIFVQGLGENVTIESVADYFKQIGIIKTNKKTGQPMINLYTDRETGKLKGEATVSFDDPPSAKAAIDWFDGKEFSGNPIKVSFATRRADFNRGGGNGRGGRGRGGPMGRGGYGGGGSGGGGRGGFPSGGGGGGGQQRAGDWKCPNPTCENMNFSWRNECNQCKAPKPDGPGGGPGGSHMGGNYGDDRRGGRGGYDRGGYRGRGGDRGGF
notes: source: E. coli BL21 (DE3), purified (amylose resin, SEC); not shown: MBP, N-terminal, kept
